Data published in patent publication US20140348785A1 (published 2014).
Positions count from the first letter of the chain named. Names may count otherwise.

B1: G52cA (heavy chain) (antibody, V domains shown)
VH: EVQLVESGGGLVKPGGSLRLSCSASGFDFDNAWMTWVRQPPGKGLEWVGRITGPAEGWSVDYAAPVEGRFTISRLNSINFLYLEMNNLRMEDSGLYFCARTGKYYDFWSGYPPGEEYFQDWGRGTLVTVSS
VL: SYELTQETGVSVALGRTVTITCRGDSLRSHYASWYQKKPGQAPILLFYGKNNRPSGVPDRFSGSASGNRASLTISGAQAEDDAEYYCSSRDKSGSRLSVFGGGTKLTVL
B2: G100dA (heavy chain) (antibody, V domains shown)
VH: B1 VH with A55G, G110A
VL: B1 VL
B3: 10E8 IgG alanine variant E53A (heavy chain, Kabat) (antibody, V domains shown)
VH: B1 VH with A55G, E56A
VL: B1 VL
B4: Y100eA (heavy chain) (antibody, V domains shown)
VH: B1 VH with A55G, Y111A
VL: B1 VL
B5: E100iA (heavy chain) (antibody, V domains shown)
VH: B1 VH with A55G, E115A
VL: B1 VL
B6: 10E8 monoclonal antibody (full-length IgG) (antibody, V domains shown)
VH: B1 VH with A55G
VL: B1 VL
B7: T52A (heavy chain) (antibody, V domains shown)
VH: B1 VH with T52A, A55G
VL: B1 VL
B8: P100fA (heavy chain) (antibody, V domains shown)
VH: B1 VH with A55G, P112A
VL: B1 VL
B9: P100gA (heavy chain) (antibody, V domains shown)
VH: B1 VH with A55G, P113A
VL: B1 VL
B10: Y98A (heavy chain) (antibody, V domains shown)
VH: B1 VH with A55G, Y104A
VL: B1 VL
B11: D28A (heavy chain) (antibody, V domains shown)
VH: B1 VH with D28A, A55G
VL: B1 VL
B12: W100bA (heavy chain) (antibody, V domains shown)
VH: B1 VH with A55G, W108A
VL: B1 VL
B13: F100aA (heavy chain) (antibody, V domains shown)
VH: B1 VH with A55G, F107A
VL: B1 VL
B14: D58A (heavy chain) (antibody, V domains shown)
VH: B1 VH with A55G, D61A
VL: B1 VL
B15: K97A (heavy chain) (antibody, V domains shown)
VH: B1 VH with A55G, K103A
VL: B1 VL
B16: N31A (heavy chain) (antibody, V domains shown)
VH: B1 VH with N31A, A55G
VL: B1 VL
B17: D30A (heavy chain) (antibody, V domains shown)
VH: B1 VH with D30A, A55G
VL: B1 VL
B18: S56A (heavy chain) (antibody, V domains shown)
VH: B1 VH with A55G, S59A
VL: B1 VL
B19: R95bA (light chain) (antibody, V domains shown)
VH: B1 VH with A55G
VL: B1 VL with R96A
B20: E100jA (heavy chain) (antibody, V domains shown)
VH: B1 VH with A55G, E116A
VL: B1 VL
B21: S100cA (heavy chain) (antibody, V domains shown)
VH: B1 VH with A55G, S109A
VL: B1 VL

Tests used:
[1] = target: soluble gp41 MPER peptide RRR-(656-683)-RRR; experiment: kinetic binding (ka/kd)
[2] = target: soluble gp41 MPER peptide RRR-(656-683)-RRR; experiment: kinetic binding (ka/kd); mean of three runs

| Binder | Kd [1] [nM] | Kd [2] [nM] |
| --- | --- | --- |
| B1 | 11.1 |  |
| B2 | 315 |  |
| B3 | 395 |  |
| B4 | 75.9 |  |
| B5 | 433 |  |
| B6 |  | 6.08 |
| B7 | 10.9 |  |
| B8 | 757 |  |
| B9 | 691 |  |
| B10 | 27 |  |
| B11 | 14.3 |  |
| B12 | 93.1 |  |
| B13 | 429 |  |
| B14 | 30.6 |  |
| B15 | 24.8 |  |
| B16 | 13 |  |
| B17 | 11.8 |  |
| B18 | 10.9 |  |
| B19 | 28.6 |  |
| B20 | 361 |  |
| B21 | 9.65 |  |
